This is an account of results in US11156615B2 (priority 2015, dated 2021).

The format of series [1] is physicochemical. The text has this: (§1) Panels A-C: ttGBP182C.2.0-Imm0; Panels D-F: ttGBP182C.2.0-Imm1 (see FIG. 13). (A) Solution (Tm=347.6K). (B) Immobilized on Nickel-nitriloacetic acid (Ni-NTA) beads (Tm=346.7K). (C) Reconstituted, desiccated Ni-NTA beads (Tm=347.6K). (D) Fluorescence response of ttGGBP5.2 Imm1 immobilized on NHS-functionalized agarose beads. Data was collected on a Roche LightCycler real-time PCS instrument, recording emission intensities at 488 nm and 510 nm as a function of temperature in a 384-well microtiter plate. […] Temperature melts of twelve different wells. Apo protein thermostability as reported by the denaturation mid-point temperature is 349 K, similar to the protein free in solution. […] (F) Representative Langmuir ligand-binding curve extracted from the three-dimensional data.
(§2) Site-specific immobilization minimizes perturbation of the sensing mechanism. […] Similarly, hexa-lysine fusion domains were immobilized on agarose beads derivatized with N-hydroxysuccinimide, and the QNK- or βZif-fusion on iodacetyl-derivatized beads.

Series [2] in a line: Thermostability: mid-point thermal denaturation temperature (Tm) from temperature-dependent fluorescence (Roche LightCycler). The series is classed as physicochemical. The settings on record: for apoTm: Badan conjugate, apo-protein. An outline of the steps:
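Unfolding tracked by SYPRO binding to denatured protein, fluorescence at 488 nm/510 nm recorded on a LightCycler as temperature rose in 1 K steps. Tm taken as denaturation mid-point, for protein in solution or immobilized on Ni-NTA or NHS-agarose beads.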

Series [3] can be described thus: Glucose-dependent fluorescence emission intensity spectra of conjugates (Nanodrop3300). The series is classed as biochemical. The settings on record: Nanodrop3300. The source says:
Semi-synthetic FRSs were engineered by site-specifically attaching thiol-reactive, environmentally sensitive fluorophores that respond to ligand-mediated conformational changes. Identification of FRS candidates that are useful for sensing applications comprises three steps: • 1. Cysteine scan. Mutant glucose-binding proteins containing single cysteines are constructed for site-specific attachment of thiol-reactive fluorophores. […] Candidate positions fall into three classes: endosteric, replacing a residue that contacts the ligand directly; peristeric, located at the rim of the binding site; allosteric (Marvin et al. 1997 Proc Natl Acad Sci USA, 94, 4366-71; Marvin 1998 J Am Chem Soc, 120, 7-11), located outside the binding site at sites that undergo local structural changes in concert with the hinge-bending motion. • 2. Fluorophore screening. Thiol-reactive, environmentally sensitive fluorophores are attached to each cysteine mutant prepared in step 1. • 3. Evaluation of the glucose-mediated change of all the fluorescent conjugates prepared in step 2. Responses to ligand binding in which there is both a change in fluorescence emission intensity and spectral shape was essential for chemometric applications, because such changes enable ratiometric measurements. Changes in spectral shape typically are accompanied by a shift in the wavelength of the emission intensity maxima. Three classes of fluorescent responses are possible: • i. No response. • ii. Monochromatic response (emission intensity increases or decreases without a change in spectral shape) • iii.

Series [4] is described as follows: Galactose binding: isothermal fluorescence titrations of conjugates. The settings on record: Badan conjugate; for S, selectivity = trueKd(galactose)/trueKd(glucose): S > 1, selective for glucose; for Kd: read-out: Galactose trueKd, monochromatic titration curves, room temperature.
Series [5] can be described thus: Glucose binding: isothermal fluorescence titrations, ratiometric (appKd) and monochromatic (trueKd) fits. To be noted: Badan conjugate, room temperature. The text has this:
2 For a single glucose-binding site, the fractional saturation is given by
[formula] where ^apoIλ2 and ^satIλ2 are the emission intensities of the monochromatic signal at wavelength λ2 of the ligand-free and ligand-bound protein, respectively.

Series [6] is described as follows: Glucose titration of bead-immobilized sensor. The format is binding. To be noted: read-out: Kd (glucose); 25° C.; immobilized on NHS-functionalized agarose beads.
From the text: as §1
Data were highly precise, being reproducible <0.2% coefficient of variance.
as §2

[7] abbreviates: Badan conjugate of ttGGBP.17C mutant.
Where [8] appears, read: read-out: Glucose appKd, dichromatic ratiometry.
Where [9] appears, read: read-out: Glucose trueKd, monochromatic titration curves.

Substitutions are numbered along the chain they refer to. Like-named read-outs stand apart in the source and are kept apart here.

B1: ttGBP182C.2.0-Imm0: ttGGBP182C.2.0 immobilization fusion construct Imm0 (SEQ ID NO: 173), Acrylodan labelled (conjugate)
chain: MKQLNIGVAIYKFDDTFMTGVRNAMTAEAQGKAKLNMVDSQNSQPTQNDQVDLFITKKMNALAINPVDRTAAGTIIDKAKQANIPVVFFNKEPLPEDMKKWDKVYYVGAKAEQSGILQGQIMADYWKAHPEADKNHDGVMQYVMLMGEPGHQDAILRTQYSIQTVKDAGIKVQELAKDYANCDRVTAHDKMAAWLSSFGDKIEAVFANNDDMALGAIEALKSAGYFTGNKYIPVVGVDATAPGIQAIKDGTLLGTVLNDAKNQAKATFNIAYELAQGITPTKDNIGYDITDGKYVWIPYKKITKDNISDAEQGGSHHHHHH
modifications: Acrylodan label; ttGGBP182C.2.0_Imm0
B1: the Tm was found to be 73.6 °C in series [1] (immobilized on Ni-NTA beads (FIG. 14B)); 74.5 °C in series [1] (reconstituted, desiccated Ni-NTA beads (FIG. 14C)); 74.5 °C in series [2] (solution (FIG. 14A)).

B2: ttGGBP17C.27: affinity-tuning mutant, 17C background, SEQ ID NO: 85 (protein)
chain: B1 chain with F17C, K91R, E148Q, C182W, A260F
modifications: ttGGBP17C.27 (affinity-tuning mutant, 17C background (Table 6) with signal peptide replaced with M and GGSHHHHHH at C-terminus)
The molecule B2 registered an apoTm in series [2] of 346 K. In addition, the “Type of fluorescence response to glucose” value in series [3] (setting [7]) is “i (i, intensity increase only)”. In series [4], the “S, selectivity = trueKd(galactose)/trueKd(glucose)” value came out at 33. Besides, the Kd in series [4] was 8800 µM; in series [5] (setting [8]), 200 µM; in series [5] (setting [9]) it was 300 µM.

B3: ttGGBP17C.28: affinity-tuning mutant, 17C background, SEQ ID NO: 86 (protein)
chain: B1 chain with F17C, K91R, E148Q, C182W, A260Y
modifications: ttGGBP17C.28 (affinity-tuning mutant, 17C background (Table 6) with signal peptide replaced with M and GGSHHHHHH at C-terminus)
Turning to B3, in series [2], the apoTm is recorded as 346 K. Further, in series [3] (setting [7]), the “Type of fluorescence response to glucose” value is “i (i, intensity increase only)”. The “S, selectivity = trueKd(galactose)/trueKd(glucose)” value in series [4] turned out to be 37. Also, the figures for the Kd in series [4], in series [5] (setting [8]) and in series [5] (setting [9]) were 2600 µM, 60 µM and 70 µM, respectively.

B4: ttGGBP17C.26: affinity-tuning mutant, 17C background, SEQ ID NO: 84 (protein)
chain: B1 chain with F17C, K91R, E148Q, C182W, A260W
modifications: ttGGBP17C.26 (affinity-tuning mutant, 17C background (Table 6) with signal peptide replaced with M and GGSHHHHHH at C-terminus)
Consider B4, for which, in series [2], the apoTm turned out to be 346 K. Further, the “Type of fluorescence response to glucose” value in series [3] (Acrylodan conjugate of ttGGBP.17C mutant) was “i (i, intensity increase only)”; in series [3] (setting [7]), “r(h) (r(h), ratiometric (hypsochromic shift))”. Besides, the “S, selectivity = trueKd(galactose)/trueKd(glucose)” value in series [4] was 16. In addition, the Kd in series [4] stood at 14000 µM; in series [5] (setting [8]), 900 µM; in series [5] (setting [9]), 900 µM.

B5: ttGGBP5.2 Imm1: ttGGBP182C.2.0 immobilization fusion construct Imm1 (SEQ ID NO: 175), labelled, on NHS-functionalized agarose beads (conjugate)
chain: MKQLNIGVAIYKFDDTFMTGVRNAMTAEAQGKAKLNMVDSQNSQPTQNDQVDLFITKKMNALAINPVDRTAAGTIIDKAKQANIPVVFFNKEPLPEDMKKWDKVYYVGAKAEQSGILQGQIMADYWKAHPEADKNHDGVMQYVMLMGEPGHQDAILRTQYSIQTVKDAGIKVQELAKDYANCDRVTAHDKMAAWLSSFGDKIEAVFANNDDMALGAIEALKSAGYFTGNKYIPVVGVDATAPGIQAIKDGTLLGTVLNDAKNQAKATFNIAYELAQGITPTKDNIGYDITDGKYVWIPYKKITKDNISDAEQGGSGGSKKKKKKGGSHHHHHH
modifications: fluorescent label; immobilized on NHS-agarose beads; ttGGBP182C.2.0_Imm1
For B5, the “denaturation mid-point temperature (apo protein thermostability)” value in series [1] turned out to be 349 K. Moreover, the Kd in series [6] came to 4800 µM.
